The data set concerns the molecule itself. As to the kind of experiment: sedimentation velocity centrifugation on glycerol gradients.

One may read the stoichiometry N as a count of units in the complex or per binding partner.

B1: cytotactin (intact, unreduced hexabrachion) (natural protein)
chain: ETGLNVTLPEDNQPVVFNHVYNIKLPVGSLCSVDLDTASGDADLKAEIEPVKNYEEHTVNEGNQIVFTHRINIPRRACGCAAAPDIKDLLSRLEELEGLVSSLREQCASGAGCCPNSQTAEGRLDTAPYCSGHGNYSTEICGCVCEPGWKGPNCSEPACPRNCLNRGLCVRGKCICEEGFTGEDCSQAACPSDCNDQGKCVDGVCVCFEGYTGPDCGEELCPHGCGIHGRCVGGRCVCHEGFTGEDCNEPLCPNNCHNRGRCVDNECVCDEGYTGEDCGELICPNDCFDRGRCINGTCFCEEGYTGEDCGELTCPNNCNGNGRCENGLCVCHEGFVGDDCSQKRCPKDCNNRGHCVDGRCVCHEGYLGEDCGELRCPNDCHNRGRCINGQCVCDEGFIGEDCGELRCPNDCHNRGRCVNGQCECHEGFIGEDCGELRCPNDCNSHGRCVNGQCVCDEGYTGEDCGELRCPNDCHNRGRCVEGRCVCDNGFMGEDCGELSCPNDCHQHGRCVDGRCVCHEGFTGEDCRERSCPNDCNNVGRCVEGRCVCEEGYMGIDCSDVSPPTELTVTNVTDKTVNLEWKHENLVNEYLVTYVPTSSGGLDLQFTVPGNQTSATIHELEPGVEYFIRVFAILKNKKSIPVSARVATYLPAPEGLKFKSVRETSVQVEWDPLSISFDGWELVFRNMQKKDDNGDITSSLKRPETSYMQPGLAPGQQYNVSLHIVKNNTRGPGLSRVITTKLDAPSQIEAKDVTDTTALITWSKPLAEIEGIELTYGPKDVPGDRTTIDLSEDENQYSIGNLRPHTEYEVTLISRRGDMESDPAKEVFVTDLDAPRNLKRVSQTDNSITLEWKNSHANIDNYRIKFAPISGGDHTELTVPKGNQATTRATLTGLRPGTEYGIGVTAVRQDRESAPATINAGTDLDNPKDLEVSDPTETTLSLRWRRPVAKFDRYRLTYVSPSGKKNEMEIPVDSTSFILRGLDAGTEYTISLVAEKGRHKSKPTTIKGSTEEEPELGNLSVSETGWDGFQLTWTAADGAYENFVIQVQQSDNPEETWNITVPGGQHSVNVTGLKANTPYNVTLYGVIRGYRTKPLYVETTTGAHPEVGELTVSDITPESFNLSWTTTNGDFDAFTIEIIDSNRLLEPMEFNISGNSRTAHISGLSPSTDFIVYLYGISHGFRTQAISAAATTEAEPEVDNLLVSDATPDGFRLSWTADDGVFDSFVLKIRDTKRKSDPLELIVPGHERTHDITGLKEGTEYEIELYGVSSGRRSQPINSVATTVVGSPKGISFSDITENSATVSWTPPRSRVDSYRVSYVPITGGTPNVVTVDGSKTRTKLVKLVPGVDYNVNIISVKGFEESEPISGILKTALDSPSGLVVMNITDSEALATWQPAIAAVDNYIVSYSSEDEPEVTQMVSGNTVEYDLNGLRPATEYTLRVHAVKDAQKSETLSTQFTTGLDAPKDLSATEVQSETAVITWRPPRAPVTDYLLTYESIDGRVKEVILDPETTSYTLTELSPSTQYTVKLQALSRSMRSKMIQTVFTTTGLLYPYPKDCSQALLNGEVTSGLYTIYLNGDRTQPLQVFCDMAEDGGGWIVFLRRQNGKEDFYRNWKNYVAGFGDPKDEFWIGLENLHKISSQGQYELRVDLRDRGETAYAVYDKFSVGDAKTRYRLRVDGYSGTAGDSMTYHNGRSFSTFDKDNDSAITNCALSYKGAFWYKNCHRVNLMGRYGDNNHSQGVNWFHWKGHEYSIQFAEMKLRPSSFRNLEGRRKRA
modifications: interchain disulfide bonds; HNK-1 carbohydrate epitope; radioiodinated (chloramine T, 125I) in the ultracentrifugation
Take B1: the “stoichiometry N” value was around 6.
